Earlier results in paper PMC11988861, “Step Enzymatic Hydrolysis and In Silico Screening-Assisted Preparation of Bioactive Peptides from Abalone” (Foods, 2025).

Biological target: ACE (Homo sapiens, UniProt P12821)
Parameters: method as in PMID 35323475
Conditions: literature ACEi peptides from skipjack tuna muscle

Sequence of ACE (P12821 30-1306, species assumed): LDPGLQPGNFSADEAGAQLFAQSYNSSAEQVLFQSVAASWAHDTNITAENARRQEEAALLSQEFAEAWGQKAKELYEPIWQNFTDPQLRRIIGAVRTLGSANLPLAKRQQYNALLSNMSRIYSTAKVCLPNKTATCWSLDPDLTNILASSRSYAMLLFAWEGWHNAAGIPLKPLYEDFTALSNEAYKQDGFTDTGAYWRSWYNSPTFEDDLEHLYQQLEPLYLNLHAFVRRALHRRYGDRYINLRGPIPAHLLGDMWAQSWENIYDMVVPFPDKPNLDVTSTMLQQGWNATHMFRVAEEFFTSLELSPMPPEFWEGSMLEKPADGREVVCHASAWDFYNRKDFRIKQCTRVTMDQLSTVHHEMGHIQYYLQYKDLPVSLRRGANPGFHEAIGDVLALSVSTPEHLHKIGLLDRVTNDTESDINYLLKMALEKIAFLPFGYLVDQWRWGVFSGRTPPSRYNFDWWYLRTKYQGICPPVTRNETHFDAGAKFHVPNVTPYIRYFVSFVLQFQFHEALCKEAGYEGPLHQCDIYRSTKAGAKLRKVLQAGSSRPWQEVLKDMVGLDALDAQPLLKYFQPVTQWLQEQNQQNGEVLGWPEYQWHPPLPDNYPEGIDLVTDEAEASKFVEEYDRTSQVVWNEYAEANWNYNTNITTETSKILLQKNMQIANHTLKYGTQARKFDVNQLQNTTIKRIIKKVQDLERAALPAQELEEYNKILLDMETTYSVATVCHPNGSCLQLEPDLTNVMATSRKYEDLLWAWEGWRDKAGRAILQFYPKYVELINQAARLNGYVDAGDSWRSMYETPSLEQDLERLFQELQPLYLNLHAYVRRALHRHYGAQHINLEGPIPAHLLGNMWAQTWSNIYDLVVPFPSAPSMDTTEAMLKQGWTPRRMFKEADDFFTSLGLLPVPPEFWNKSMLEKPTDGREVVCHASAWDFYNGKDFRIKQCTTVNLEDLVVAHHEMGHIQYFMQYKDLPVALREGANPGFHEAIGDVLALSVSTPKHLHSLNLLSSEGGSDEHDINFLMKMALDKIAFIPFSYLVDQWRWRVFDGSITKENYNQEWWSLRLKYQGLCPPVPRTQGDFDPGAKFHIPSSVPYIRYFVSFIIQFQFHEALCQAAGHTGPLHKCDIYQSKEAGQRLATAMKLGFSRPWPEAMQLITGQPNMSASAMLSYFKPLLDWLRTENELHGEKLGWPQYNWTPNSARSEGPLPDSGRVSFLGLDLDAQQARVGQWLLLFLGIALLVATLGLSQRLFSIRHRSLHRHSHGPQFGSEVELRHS

Substance: VDRYF
- ACEi IC50: 280 µg/mL
